The DeepSol protein solubility set

test: soluble on expression in E. coli; label from the status in PepcDB or PDB records

Sequence | soluble on expression in E. coli
MTICRPGKGHLMIQFDAVHKRFPNGTTAVHDLSLEMPEGGVTVLVGSSGCGKTTTLRMINRMVDPTSGTIRVGGRDILEQDAAELRRSIGYVIQQSGLFPHRTVLDNIATVPLLLGWGRRKARARAAELLDTVGLAADAGRRYPHQLSGGQQQRVGVARALAADPPVLLMDEPFGAVDPVVRTQLQDELLRLQKELSKTIVFVTHDIDEAVRLGDQIAVFRTGGHLVQCASPAELLARPADDFVADFLGAERGLKLLSLTTLADVPQGPAPEGGAWTLVLDEARRPQHWRSKDGAELPVRPLRDRDSLLAALNESVASPNGLTVRVDADGVLTGVSSRDDIHEHAGRAHSEASVAALEHHHHHH | not soluble
MSLTQREEELARVLSGPEFATIRPDDLSVLDYSLLTLRRARLLNGAGFAANSLWLGRGDSARFPEFLRTMGWIGAYDLSLLNVLVSHQIAGDALLSHGGPEQLDAWAGEIDAMERMYCFAGSELLAGSDLKRVRTTAVYDPHGRSLVLNTPRPADSKVWTGNSLHTGDVAMVLARLEVGGRDEGHHWLRVPLREAGAVLPGVRIGRAEPKGGVTANQTGVLTFTDHRLPLSALMNRWASIDEDGTYRSPLPRHRRFEECLATFTHERLFPSVGAAYAQLLACTITTRFAAVKQTFGRPLIGHEHYRMRLSAAVGRSLAARHAMTALAEVAVARSAEGAPARDQVLHALISCGKSGCTGDARQTLAETRELCGGLGYHDANQIAPLLHDYEIAVTFGGDNTVLGYQATRFALREGHHHHHH | not soluble
GPLGSMATVPVYCVCRLPYDVTRFMIECDACKDWFHGSCVGVEEEEAPDIDIYHCPNCEKTHGKSTLKKKRTWHK | soluble
MATMLSRYFLLTVAALFAQSASAIEVLTSIKPIQMITYELMLGTGTPDVLLPSGASPHDYALRPSDVKRIQQADLVIWFGQDLEPFMSKLLEGRTSALTLSQVPNLALREYGEEEQHEHDGHHHGHYDPHFWLGIGPVGQVASAITAKLIELDADQQQQYQDNLVRFLANLAEQDNTIGEKLKPVTTVPYYVFHDAYGYFEQHFALNNLGHFTVSPERKPGAKTLIAIKKTLNDQLAKCVFSEPQFEPAIIETVVRGTSAKIGVLDPLGISIELQAGSYFAFLNSLAESYYACLSQS | not soluble
MAVLIETTLGDLIIDLFVKERPRCSLNFLKLCKKKYYNLNQFHSIERNYVAQTGDPTGTGKGGESVYSDMYGEQGRYFEREDLPKMRHTRMGIVSFVNNGDNMLGSQFFITLGENLDYLDDQHTIFGQVTEGLETLEKLNEQLADTNNRPFKDIRISHTIVLDDPFDEDARISFPPRSPSPTYEMLVKTDQIALDEKEDEDEGKTAEEIAEELQQREMAEQAQILEMVGDLKDADEVPPENVLFVCKLNPVTTDEDLEIIFSRFGKINNCEIVRDRRSGDSLQYAFIEFDNAKSCEQAFFKMDNVLIDDRRIHVDFSQSVSQNYKYKPKSQQQEAPKRRQSPQRRPEVKRSHQRSPSPRRRRSPSPKKDKKRDYRREPARRRRSSDNHRDRDRSYRDNNRDRRDNHRDSDRDRRRHDRSPDRRRDRR | not soluble
MGSDKIHHHHHHMKGMEEVVIDAKDMHYRELNEKIHEILRENPDIKKIVLKNVLGQRFIADGIQKKDLTIEIYGIPGGDLGMFMSGPTIIVHGNAEFAPGNTMDDGTIVIYGSSGDVTAHSMRGGKVFVRGDVGYRSGIHMKAYKDKVPVLVIGGRAKDFLGEYMAGGIIIVLNIDEKGNDLGKVKGRMIGTGIHGGAIYIRGEIDKDQLGVAADIKEFTEEDLEKIKPYIEEFCKWFNLPEDVKNKLLNSKWTKIAPISKRPFGKLYTPDLM | not soluble
RAQRKMSAQSLPAATPPTQKPPRIIRPRPPSRSRAAQSPGPPHNGSSPQELPRNSNDAPTPMCTPIFWEPPAASLKPPALLPPSASRASLDSQTSPDSPSSTPTPSPVSRRSASPEPAPRSPVPPPKPSGSPCTPLLPMAGVLAQNGSASAPGTVRRLAGRFEGGAEGRAQDADAPEPGLQARADVNGEREAPLTGSGSQENGAPDAGLACPPCCPCVCHTTRPGLELRWVPVGGYEEVPRVPRRASPLRTSRSRPHPPSIGHPAVVLTSYRSTAERKLLPLLKPPKPTRVRQDATIFGDPPQPDLDLLSEDGIQTGDSPDEAPQNTPPATVEGREEEGLEVLKEQNWELPLQDEPLYQTYRAAVLSEELWGVGEDGSPSPANAGDAPTFPRPPGPRNTLWQELPAVQASGLLDTLSPQERRMQESLFEVVTSEASYLRSLRLLTDTFVLSQALRDTLTPRDHHTLFSNVQRVQGVSERFLATLLSRVRSSPHISDLCDVVHAHAVGPFSVYVDYVRNQQYQEETYSRLMDTNVRFSAELRRLQSLPKCERLPLPSFLLLPFQRITRLRMLLQNILRQTEEGSSRQENAQKALGAVSKIIERCSAEVGRMKQTEELIRLTQRLRFHKVKALPLVSWSRRLEFQGELTELGCRRGGVLFASRPRFTPLCLLLFSDLLLITQPKSGQRLQVLDYAHRSLVQAQQVPDPSGPPTFRLSLLSNHQGRPTHRLLQASSLSDMQRWLGAFPTPGPLPCSPDTIYEDCDCSQELCSESSAPAKTEGRSLESRAAPKHLHKTPEGWLKGLPGAFPAQLVCEVTGEHERRRHLRQNQRLLEAVGPSSGTPNAPPP | soluble
WLLAELTYRCPLQCPYCSNPLDFARQDKELTTEQWIEVFRQARAMGSVQLGFSGGEPLTRKDLPELIRAARDLGFYTNLITSGIGLTESKLDAFSEAGLDHIQISFQASDEVLNAALAGNKKAFQQKLTMAKAVKARDYPMVLNFVLHRHNIDQLDKIIELCIELEADDVELATCQFYGWAFLNREGLLPTREQIARAEQVVADYRQKMAASGNLTNLLFVTPDYYEERPKGCMGGWGSIFLSVTPEGTALPCH | not soluble
MIGVVGGGIAGLSAAYRLQQRGHEVRVFEASEDLGGLAATYETAGDPIEKFYHHLSKSEETIVDLAEELGLGDAVEWHIGENAYYVDGVVHPMDKPWEILSYPHLSLYDTFRLGMLVLDIDVRGGVPSFDTYERLEDFEGVPIEEFVVDHTTRGVYENFFEPLLDAKFGDRKDDVSAAWLLGRVKFRGERDILNGEILGYFDGGFGRLLDALVDAVGRDNIATGTRVSDIDTSGGTVSSLTATDGTETTVHDVDSVVVATMPNVLEALTGYTCDIDFQGTVCSVISMDEPLLDTYWLNIADDAPFGALIEHTNFVSAERYGGEHLLYVARYIQDESEAIWQQSDDEVAETWLQGIESLFPDFDRDAVNWIRTGRNPRTAPVYERGYLDMVIPYDLSDAVADGLYYAGMASRAQYPERSLNGGIVAGFECADRIARDPSAATKTDESPLSEAQRLEHHHHHH | not soluble
MGSDKIHHHHHHMEINKIYCMDCLEGMKQLKDKTVDVVVTSPPYNIGIKYNKYSDNLSREDYLNWIEEVVKEIKRVLKDDGSFFINVGYTAKDPWIAFDVANVIRKHFKLQNTIHWVKSIAIQKEDVGNYPNIIGDIAVGHYKPINSDRFLSIMHEYIFHFTKNGNVKLDKLAIGVPYQDKSNIKRFNRKGDLRDRGNTWFIPYETIQSKEKERPHPATFPPKLPEMCIKLHGVKKTNLVLDPFMGIGSTAIACIRLGIDYIGFEIDEYYCRVAEERIKKELLKTDGKFDNVKNKNIITLDAFI | not soluble
MKKRLLLSTFLASTLILTGCASDQSDNEDHHTSTGIHAPKSAKKLETKDIFNSDKKNSDISDAEMKQAIEKYLSVNSDILDNKYIMQHKLDKQIDSQTKVTEKQAETLSHLSNLAVKNDLHFKKFVTENNIPKEYKKPVELMMNYFKALNSTIANVDEDIEKLSYQPQNKINVVDVPTKYAGDVNKKQQDKIKDFLKSKGIKSDVIDK | not soluble
MGHHHHHHSHMTKLPPIEQLLPHDKPMILVDRAMDIQQDTIHCQVDIAEHNPFFDSASQTVPAYVGIEFMAQSVAAWSGYHALMKEQAPPIGFLLGSRRYTSECDAFSRGQMLDVYAEKVMEDNGMAVFSARIELQGTVVATCQLNVYVPSEEKLQEMKIRSQQ | not soluble
MSLDGVLISSREAIAAAWSRVAGEQGVALGPDCLRDHVHGRPGGYTLDYLFGHLPMERRRILKQRVDALEEGADCPLLPGVAAVIRQLRWLDVPLALVTSSWPARIDHVLRQHDLQAAFRTLVSRDDVVHGKPAPDGYRLAAARLGVAPSRCLVFEDSLSGVQAACAAGATCVAIGEESGLLAAGARWSVRDFRELRIVREDDRLYCQHRHPATTGSERSVGVPEGHHHHHH | not soluble
MGNAKSTDSNPKKSVRRKSATTPSTSSSSRPSISSQGNRKPILSVNQRQIIKGCMDNSKDDLGERIFRRALERRDDFKQFIDNLSKGQRYENSQYLKQFLLGIVENIMDIDEINRISEEFGCNHVQFRANGFKPDFFACTADAVTTECTFLDQAAHPTSETAAAWSLLTSHVFSAVRDGYYAELRRQRKSSNAFRARVSVDVVSTGTDDGTSLSSATRRSNSPQEEIAESFDHHTVENNCVESSGNFLAPPTVY | not soluble
KKEQEQMLKEERKRELEEKVKAVEDRAKRRKLREERAWLLAQGKELPPELSHLDPNSPMREEKKTKDLFELDDDFTAMYKVLDVVKAHKDSWPFLEPVDESYAPNYYQIIKAPMDISSMEKKLNGGLYCTKEEFVNDMKTMFRNCRKYNGESSEYTKMSDNLERCFHRAMMKHFPGEDGDTDEEFWIREDEKREKRRSRAGRSGGSHVWTRSRDPEGSSRKQQPMENGGKSLPPTRRAPSSGDDQSSSSTQPPREVGTSNGRGFSHPLHCGGTPSQAPFLNQMRPAVPGTFGPLRGSDPATLYGSSGVLEPHPGEPVQQRQPFTMQPPVGINSLRGPRLGTPEEKQMCGGLTHLSNMGPHPGSLQLGQISGPSQDGSMYAPAQFQPGFIPPRHGGAPARPPDFPESSEIPPSHMYRSYKYLNRVHSAVWNGNHGATNQGPLGPDEKPHLGPGPSHQPRTLGHVMDSRVMRPPVPPNQWTEQSGFLPHGVPSSGYMRPPCKSAGHRLQPPPVPAPSSLFGAPAQALRGVQGGDSMMDSPEMIAMQQLSSRVCPPGVPYHPHQPAHPRLPGPFPQVAHPMSVTVSAPKPALGNPGRAPENSEAQEPENDQAEPLPGLEEKPPGVGTSEGVYLTQLPHPTPPLQTDCTRQSSPQERETVGPELKSSSSESADNCKAMKGKNPWPSDSSYPGPAAQGCVRDLSTVADRGALSENGVIGEASPCGSEGKGLGSSGSEKLLCPRGRTLQETMPCTGQNAATPPSTDPGLTGGTVSQFPPLYMPGLEYPNSAAHYHISPGLQGVGPVMGGKSPASHPQHFPPRGFQSNHPHSGGFPRYRPPQGMRYSYHPPPQPSYHHYQRTPYYACPQSFSDWQRPLHPQGSPSGPPASQPPPPRSLFSDKNAMASLQGCETLNAALTSPTRMDAVAAKVPNDGQNPGPEEEKLDESMERPESPKEFLDLDNHNAATKRQSSLSASEYLYGTPPPLSSGMGFGSSAFPPHSVMLQTGPPYTPQRPASHFQPRAYSSPVAALPPHHPGATQPNGLSQEGPIYRCQEEGLGHFQAVMMEQIGTRSGIRGPFQEMYRPSGMQMHPVQSQASFPKTPTAATSQEEVPPHKPPTLPLDQS | soluble
MGSDKIHHHHHHMNNKKIFLFEFTVGTGLVPDELLAEGKLMFDILLNQFLDENYTVKTVLCEKIAKKYPKYNEINNLEIIVSDNYINSFKEGLDDSDFALAIAPEEDLILYNLTELIEESGCLNLGCEKSGVKIAGDKFLTYEAIKNAVNTPKTFPVKKYVVKNRLGCDSTHDTFDENYIVQEFIEGEPYSVIFIAKNKKFYPVCMNKQYIEKRYCGGEINIEHTLKEKAIIECKKTLEKIEGINGYVGVDLMINGEEISILEVNPRITTSICGIKSKPSIGKLLIDNALEKDIKFEVESCLKFKRNDFGFEFL | not soluble
AIAFQPVTQKRLTNVSVVRMRKGGKRFEIACYPNMVMAYREGHVRDLDEVIQVEDVFENVSKGKLAANADLERCFGTRDRHAVLLQILLHGDLQVSDRERQYQSTRKLHEIASVVAAKTISRETKKPLPVGLIEKALREIHFAVQPNRPAKAQALEVIPLLRAQSGLDLERARLRLRIHVPSQRDAKAVKARLEPLQQGETDGTHSSSRSDSVRMKDGSAAVESESEEWLPGGALLWTVQADPGAFREIEEIVQRETNQQGIVEVASLRVLDDEDESILS | soluble
